Reference: patent US20040250304A1 (EISAI R AND D MANAGEMENT, published 2004)

B1: CLAC secreted by HEK293 transformant strain 9D2-1 permanently expressing human CLAC-P (other)
chain: EAPSECNCPAGPPGKRGKRGRRGESGPPGQPGPQGPPGPKGDKGEQGDQGPRMVFPKINHGFLSADQQLIKRRLIKGDQGQAGPPGPPGPPGPRGPPGDTGKDGPRGMPGVPGEPGKPGEQGLMGPLGPPGQKGSIGAPGIPGMNGQKGEPGLPGAVGQNGIPGPKGEPGEQGEKGDAGENGPKGDTGEKGDPGSSAAGIKGEPGESGRPGQKGEPGLPGLPGLPGIKGEPGFIGPQGEPGLPGLPGTKGERGEAGPPGRGERGEPGAPGPKGKQGESGTRGPKGSKGDRGEKGDSGAQGPRGPPGQKGDQGATKIIDYNGNLHEALQRITTLTVTGPPGPPGPQGLQGPKGEQGSPGIPGMDGEQGLKGSKGDMGDPGMTGEKGGIGLPGLPGANGMKGEKGDSGMPGPQGPSIIGPPGPPGPHGPPGPMGPHGLPGPKGTDGPMGPHGPAGPKGERGEKGAMGEPGPRGPYGLPGKDGEPGLDGFPGPRGEKGDLGEKGEKGFRGVKGEKGEPGQPGLDGLDAPCQLGPDGLPMPGCWQK
modifications: Usually, the first amino acid Glu of CLAC is cyclized to be pyroglutamic acid residue
notes: also called crude purified CLAC; culture supernatant of transformant permanently expressing CLAC-P
B2: human CLAC-P (precursor of CLAC), full length (receptor)
chain: MLLKKHAGKGGGREPRSEDPTPAEQHCSRTMPPCAVLAALLSVVAVVSCLYLGVKTNDLQARIAALESAKGAPSIHLLPDTLDHLKTMVQEKVERLLAQKSYEHMAKIRIAREAPSECNCPAGPPGKRGKRGRRGESGPPGQPGPQGPPGPKGDKGEQGDQGPRMVFPKINHGFLSADQQLIKRRLIKGDQGQAGPPGPPGPPGPRGPPGDTGKDGPRGMPGVPGEPGKPGEQGLMGPLGPPGQKGSIGAPGIPGMNGQKGEPGLPGAVGQNGIPGPKGEPGEQGEKGDAGENGPKGDTGEKGDPGSSAAGIKGEPGESGRPGQKGEPGLPGLPGLPGIKGEPGFIGPQGEPGLPGLPGTKGERGEAGPPGRGERGEPGAPGPKGKQGESGTRGPKGSKGDRGEKGDSGAQGPRGPPGQKGDQGATKIIDYNGNLHEALQRITTLTVTGPPGPPGPQGLQGPKGEQGSPGIPGMDGEQGLKGSKGDMGDPGMTGEKGGIGLPGLPGANGMKGEKGDSGMPGPQGPSIIGPPGPPGPHGPPGPMGPHGLPGPKGTDGPMGPHGPAGPKGERGEKGAMGEPGPRGPYGLPGKDGEPGLDGFPGPRGEKGDLGEKGEKGFRGVKGEKGEPGQPGLDGLDAPCQLGPDGLPMPGCWQK
notes: Type II single pass transmembrane protein of 654 amino acids, expressed permanently in HEK293 cells (strains 9D2-1, 9D2-2, 9D2-11); also called full length recombinant CLAC-P protein; 9D2 antigen precursor

What was measured:
[1] = biological target: T1, synthetic Aβ (1-42) peptide (UniProt P05067 672-713); experiment: solid phase binding: Aβ (1-42) immobilized on 96-well plates, culture supernatant applied, detection with anti-CLAC antibody and peroxidase secondary antibody, TMB; ten trials
T1 construct: domain: Aβ (1-42); also called beta-amyloid; amyloid-beta peptide
T1 sequence (P05067 672-713 limits assumed): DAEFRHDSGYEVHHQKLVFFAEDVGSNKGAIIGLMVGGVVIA
Procedure: In vitro binding of CLAC to Aβ was performed according to a method of Webster et al. (Am. J. Pathol., 150, 1531 (1997)).
The transformant (strain 9D2-1) permanently expressing human CLAC-P obtained in Example 3 was selection-cultured in DMEM medium containing 10% FBS and hygromycin for 4 days, and the culture supernatant was collected. Fifty μl (0.1 mg/ml) of synthetic Aβ (1-42) (Bachem) was immobilized to each well of 96-well micro-well plates (Greiner), and dried in a desiccator. Thereafter, blocking was performed with PBS-T containing 1% gelatin (Wako Junyaku) for 1 hour, and washed with PBS-T for 10 min (3×), and the culture supernatant obtained was applied. Similarly, culture supernatant of control HEK293 cells used in Example 3 was applied. After reaction at room temperature for 1 hour, washed with PBS-T for 10 min (5×), and then reacted with anti-CLAC antibody diluted with similar blocking solution (1/5000) at room temperature for 1 hour. After washing with PBS-T for 10 min (5×), reacted with a secondary antibody (anti-rabbit Ig, horseradish peroxidase bound whole antibody (Amersham)) diluted with similar blocking solution (1/5000) at room temperature for 1 hour. After washing with PBS-T for 10 min (5×), colour was developed with TMB reagent (Kirkegard & Perry Laboratories).

[2] = biological target: T1, synthetic Aβ (1-42) peptide; experiment: Aβ (1-42) binding to HEK293 cells expressing human CLAC-P; Western blotting

fold colour development against control HEK293 supernatant [1] [times] | binding result [2] | Binder
~50 |  | B1
 | binds | B2
